Source: publication PMC12212138, “Crystal structure and mutagenesis of a nucleic acid–binding BRCT domain in human PARP4”
Substitutions are numbered along the chain they refer to.

Assays:
Conditions in all cases: protein: recombinant; tags: N-terminal His-SUMO removed by TEV; label: 5'-6-FAM; predicted intramolecular fold
PARP4 BRCT F39Q = target: T1, PARP4 BRCT F39Q (human, UniProt Q9UKK3 1-100, F39Q); assay: EMSA; 20 nM probe; FP: 50 mM Tris pH 7.5, 50 mM NaCl, 1 mM MgCl2, 0.05% NP40, 2 mM DTT, 5% glycerol, 25 ug/ml BSA, room temp 30 min; EMSA: 50 mM Tris pH 7.5, 50 mM NaCl, 4% Ficoll PM400, 0.05% NP40, 2 mM DTT, 0-18 uM protein, room temp 30 min, gel at 4 C
T1 sequence: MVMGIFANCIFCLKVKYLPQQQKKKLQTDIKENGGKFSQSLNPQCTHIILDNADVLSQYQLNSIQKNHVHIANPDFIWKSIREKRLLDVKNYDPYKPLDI

PARP4 BRCT K31Q = target: T2, PARP4 BRCT K31Q (human, UniProt Q9UKK3 1-100, K31Q); assay: as above
T2 sequence: T1 sequence with K31Q, Q39F

PARP4 BRCT-WGR-CAT WT [1] = target: T3, PARP4 BRCT-WGR-CAT WT (human, UniProt Q9UKK3 1-573); assay: as above
T3 sequence: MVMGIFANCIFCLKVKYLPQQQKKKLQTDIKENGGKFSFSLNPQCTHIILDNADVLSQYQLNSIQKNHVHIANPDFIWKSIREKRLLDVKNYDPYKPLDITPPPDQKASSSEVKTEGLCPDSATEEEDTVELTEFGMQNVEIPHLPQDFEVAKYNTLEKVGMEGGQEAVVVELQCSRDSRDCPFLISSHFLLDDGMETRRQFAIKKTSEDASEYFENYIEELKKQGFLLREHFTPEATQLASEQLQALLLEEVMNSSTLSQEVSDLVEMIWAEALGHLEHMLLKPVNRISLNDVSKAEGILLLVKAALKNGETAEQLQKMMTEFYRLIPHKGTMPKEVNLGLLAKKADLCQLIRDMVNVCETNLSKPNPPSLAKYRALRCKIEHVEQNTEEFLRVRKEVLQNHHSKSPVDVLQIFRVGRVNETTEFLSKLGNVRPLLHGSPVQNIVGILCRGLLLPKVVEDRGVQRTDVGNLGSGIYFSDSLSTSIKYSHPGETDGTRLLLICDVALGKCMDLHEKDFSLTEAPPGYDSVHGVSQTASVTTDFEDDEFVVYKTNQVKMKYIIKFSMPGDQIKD

PARP4 BRCT-WGR-CAT WT [2] = target: T3, PARP4 BRCT-WGR-CAT WT; assay: FP; 3 or 15 nM probe; FP: 50 mM Tris pH 7.5, 50 mM NaCl, 1 mM MgCl2, 0.05% NP40, 2 mM DTT, 5% glycerol, 25 ug/ml BSA, room temp 30 min; EMSA: 50 mM Tris pH 7.5, 50 mM NaCl, 4% Ficoll PM400, 0.05% NP40, 2 mM DTT, 0-18 uM protein, room temp 30 min, gel at 4 C
[3] = target: T4, PARP4 BRCT-WGR-CAT K23/24Q (human, UniProt Q9UKK3 1-573, K23Q;K24Q); assay: EMSA; 20 nM probe; rough estimate; FP: 50 mM Tris pH 7.5, 50 mM NaCl, 1 mM MgCl2, 0.05% NP40, 2 mM DTT, 5% glycerol, 25 ug/ml BSA, room temp 30 min; EMSA: 50 mM Tris pH 7.5, 50 mM NaCl, 4% Ficoll PM400, 0.05% NP40, 2 mM DTT, 0-18 uM protein, room temp 30 min, gel at 4 C
T4 sequence: T3 sequence with K23Q, K24Q

PARP4 BRCT WT = target: T5, PARP4 BRCT WT (human, UniProt Q9UKK3 1-100); assay: FP; 30 nM probe, probe concentration comparison; FP: 50 mM Tris pH 7.5, 50 mM NaCl, 1 mM MgCl2, 0.05% NP40, 2 mM DTT, 5% glycerol, 25 ug/ml BSA, room temp 30 min; EMSA: 50 mM Tris pH 7.5, 50 mM NaCl, 4% Ficoll PM400, 0.05% NP40, 2 mM DTT, 0-18 uM protein, room temp 30 min, gel at 4 C
T5 sequence: T1 sequence with Q39F

B1: vtRNA1-3 (structured_RNA)
RNA: GGCUGGCUUUAGCUCAGCGGUUACUUCGCGUGUCAUCAAACCACCUCUCUGGGUUGUUCGAGACCCGCGGGCGCUCUCCAGCCCUCUU
Work on B1 yielded a Kd (PARP4 BRCT F39Q) of 0.9 ± 0.5 µM, a Kd (PARP4 BRCT K31Q) of 3 ± 1 µM and a Kd (PARP4 BRCT-WGR-CAT WT [1]) of 3 ± 1 µM. The Kd (PARP4 BRCT-WGR-CAT WT [2]) was 27 ± 9 µM, the Kd [3] was about 54 µM and the Kd (PARP4 BRCT WT) was 18 ± 3 µM.
